Reference: the supplement of paper PMC10567573

B1: C8orf76 (parent)
chain: YCAKLCEPQWFYEETESSDDVEVL
B2: ZNF449 (parent)
chain: QLTGHQRIHSGEEPHKCPECGKRF

Variants of: B1
Experiment: protein stability index of a GFP-peptide fusion (GPS, HEK-293T) (PSI 1-6); higher = more stable
Details: c terminus: a fixed tail appended
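Note: lentivirally expressed fusions sorted by FACS into six bins by GFP to DsRed ratio, PSI derived from sequencing read proportions per bin multiplied by bin number.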

Variant	protein stability index
YCAKLCEPQWFYEETESSDFVEVL [D20F]	2.04
YCAKLCEPQWFYEETESSDMVEVL [D20M]	2.02
YCAKLCEPQWFYEETESSYDVEVL [D19Y]	1.76
YCAKLCEPQWFYEETESSADVEVL [D19A]	2.15
YCAKLCEPQWFYEETESSQDVEVL [D19Q]	2.2
YCAKLCEPQWFYEETESSRDVEVL [D19R]	2
YCAKLCEPQSFYEETESSDDVEVL [W10S]	4.48
YCAKLCEPQFFYEETESSDDVEVL [W10F]	3.22
YCAKLCEPQCFYEETESSDDVEVL [W10C]	3.87
YCAKLCEPQKFYEETESSDDVEVL [W10K]	4.15
YCAKLCEPQNFYEETESSDDVEVL [W10N]	4.07
YCAKLCEPQWFYEETESSDDVEDL [V23D]	2.41
YCAKLCEPQWFYEETESSDDVEKL [V23K]	1.96
YCAKLCEPQWFYEETESSDDVERL [V23R]	2.44
LCAKLCEPQWFYEETESSDDVEVL [Y1L]	3.71
MCAKLCEPQWFYEETESSDDVEVL [Y1M]	4.26
YCAKLCEPQWFYEETGSSDDVEVL [E16G]	1.87
YCAKLCEPQWFYEETDSSDDVEVL [E16D]	2.41
YCAKLCEPQWFYEETKSSDDVEVL [E16K]	2.28
YCAKLCEPQWFYEETPSSDDVEVL [E16P]	1.65
YCAKLCEPQWTYEETESSDDVEVL [F11T]	3.48
YCAKLCEPQWEYEETESSDDVEVL [F11E]	4.83

Variant	protein stability index
YCCKLCEPQWFYEETESSDDVEVL [A3C]	2.7
YCPKLCEPQWFYEETESSDDVEVL [A3P]	1.71
YCVKLCEPQWFYEETESSDDVEVL [A3V]	3.04
YCEKLCEPQWFYEETESSDDVEVL [A3E]	4.06
YCYKLCEPQWFYEETESSDDVEVL [A3Y]	2.83
YCAKLLEPQWFYEETESSDDVEVL [C6L]	2.96
YCAKLPEPQWFYEETESSDDVEVL [C6P]	2.86
YCAKLCEPQWFYEETEDSDDVEVL [S17D]	3.15
YCAKLCEPQWFYEETEWSDDVEVL [S17W]	2.74
YCAKLCEPQWFYEETENSDDVEVL [S17N]	2.4
YCAKLCEPQWFYEETEHSDDVEVL [S17H]	1.87
YCAKLCEPQWFIEETESSDDVEVL [Y12I]	1.97
YCAKLCEPQWFCEETESSDDVEVL [Y12C]	1.98
YCAKLCEPQWFGEETESSDDVEVL [Y12G]	2.62
YCAKLCEPQWFREETESSDDVEVL [Y12R]	2.76
YCAKLCEPQWFDEETESSDDVEVL [Y12D]	3.63
YCAKLCEPQWFFEETESSDDVEVL [Y12F]	2.43
YCAKCCEPQWFYEETESSDDVEVL [L5C]	3.03
YCAKRCEPQWFYEETESSDDVEVL [L5R]	2.44
YCAKMCEPQWFYEETESSDDVEVL [L5M]	2.97
YCAKTCEPQWFYEETESSDDVEVL [L5T]	2.78
YCAKLCEPQWFYEETESSDDPEVL [V21P]	2.38

Variant	protein stability index
YCAKLCEPQWFYEETESSDDIEVL [V21I]	2.39
YCAKLCEPQWFYEETESSDDTEVL [V21T]	3.28
YCAKLCEPIWFYEETESSDDVEVL [Q9I]	2.22
YCAKLCEPWWFYEETESSDDVEVL [Q9W]	1.04
YCAKLCEPDWFYEETESSDDVEVL [Q9D]	3.86
YCAKLCEPGWFYEETESSDDVEVL [Q9G]	2.15
YCAKLCEPKWFYEETESSDDVEVL [Q9K]	2.09
YCAKLCEPQWFYEETESSDDVRVL [E22R]	2.14
YCAKLCEPQWFYEETESSDDVVVL [E22V]	1.36
YCAKLCEPQWFYEETESSDDVMVL [E22M]	1.49
YCAKLCEPQWFYEETESSDDVLVL [E22L]	1.38
YCACLCEPQWFYEETESSDDVEVL [K4C]	2.96
YCARLCEPQWFYEETESSDDVEVL [K4R]	2.54
YCAHLCEPQWFYEETESSDDVEVL [K4H]	2.84
YCAKLCEPQWFYEETESSDDVEVD [L24D]	2.56
YCAKLCEPQWFYEETESSDDVEVV [L24V]	2.31
YCAKLCEPQWFYWETESSDDVEVL [E13W]	1.8
YCAKLCEPQWFYDETESSDDVEVL [E13D]	2.04
YCAKLCEPQWFYRETESSDDVEVL [E13R]	1.64
YCAKLCEPQWFYGETESSDDVEVL [E13G]	1.26
YCAKLCEKQWFYEETESSDDVEVL [P8K]	1.62
YCAKLCESQWFYEETESSDDVEVL [P8S]	2.62

Variant	protein stability index
YCAKLCEIQWFYEETESSDDVEVL [P8I]	1.58
YWAKLCEPQWFYEETESSDDVEVL [C2W]	2.82
YHAKLCEPQWFYEETESSDDVEVL [C2H]	1.68
YPAKLCEPQWFYEETESSDDVEVL [C2P]	4.2
YAAKLCEPQWFYEETESSDDVEVL [C2A]	1.94
YLAKLCEPQWFYEETESSDDVEVL [C2L]	2.94
YFAKLCEPQWFYEETESSDDVEVL [C2F]	2.59
YSAKLCEPQWFYEETESSDDVEVL [C2S]	3.63
YCAKLCRPQWFYEETESSDDVEVL [E7R]	2.6
YCAKLCTPQWFYEETESSDDVEVL [E7T]	2.5
YCAKLCEPQWFYETTESSDDVEVL [E14T]	2.17
YCAKLCEPQWFYERTESSDDVEVL [E14R]	1.8
YCAKLCEPQWFYELTESSDDVEVL [E14L]	2.29
YCAKLCEPQWFYEMTESSDDVEVL [E14M]	2.78
YCAKLCEPQWFYEFTESSDDVEVL [E14F]	2.24
YCAKLCEPQWFYEETESTDDVEVL [S18T]	2.11
YCAKLCEPQWFYEEVESSDDVEVL [T15V]	2.17
YCAKLCEPQWFYEEKESSDDVEVL [T15K]	2.08
YCAKLCEPQWFYEEDESSDDVEVL [T15D]	2.9
YCAKLCEPQWFYEEFESSDDVEVL [T15F]	2.02

Variants of: B2
Experiment: as above
Details: c terminus: a fixed tail appended

Variant	protein stability index
QLTGHQRIHSGEEPHKKPECGKRF [C17K]	5.14
QLTGHQRIHSGEEPHKIPECGKRF [C17I]	4.4
QLTGHQRIHSGEEPHKWPECGKRF [C17W]	3.92
QLTGHQRIHSGEEPHKSPECGKRF [C17S]	4.43
QLTGHQRIHSGEEPHKGPECGKRF [C17G]	3.56
QLTGHQRIHSGEEPHKAPECGKRF [C17A]	4.4
QLTGHQRIHSGEEPHKLPECGKRF [C17L]	4.58
QLTGHQRIHSGEEPHKYPECGKRF [C17Y]	4.26
QLTGHQRIHSGEEPHKTPECGKRF [C17T]	3.98
QLTGHQRIHSGEEPHKFPECGKRF [C17F]	4.6
QLTGHQRIHSGEEPHKNPECGKRF [C17N]	4.3
QLTGHQRIHSGEEPHKCPECGKHF [R23H]	4.23
QLTGHQRIHSGEEPHKCPECGKVF [R23V]	4.72
QLTGHQRIHSGEEPHKCPECGKWF [R23W]	3.92
QLTGHQRIHSGEEPHKCPECGKGF [R23G]	4.32
QLTGHQRIHSGEEPHKCPECGKPF [R23P]	4.28
QLTGHQRIHSGEEPHKCPECGKAF [R23A]	4.91
QLSGHQRIHSGEEPHKCPECGKRF [T3S]	2.94
QLYGHQRIHSGEEPHKCPECGKRF [T3Y]	3.54
QLPGHQRIHSGEEPHKCPECGKRF [T3P]	4.61
QLTGHQRIHSGEEPHKCNECGKRF [P18N]	4.3
QLTGHQRIHSGEEPHKCAECGKRF [P18A]	3.92
QLTGHQRIHSGEEPHKCLECGKRF [P18L]	3.92
QLTGHQRDHSGEEPHKCPECGKRF [I8D]	4.71
QLTGHQRVHSGEEPHKCPECGKRF [I8V]	3.63
QLTGHQRCHSGEEPHKCPECGKRF [I8C]	4.75

Variant	protein stability index
QLTGHQRGHSGEEPHKCPECGKRF [I8G]	4.59
QLTGHQRHHSGEEPHKCPECGKRF [I8H]	3.17
QLTGHQRNHSGEEPHKCPECGKRF [I8N]	4.24
QLTGHQRIHSGEEPHKCPCCGKRF [E19C]	2
QLTGHQRIHSGEEPHKCPNCGKRF [E19N]	4.01
QLTGHQRIHSGEEPHKCPLCGKRF [E19L]	3.16
QLTGHQRIHSGEEPHKCPQCGKRF [E19Q]	3.23
QLTGCQRIHSGEEPHKCPECGKRF [H5C]	4.86
QLTGWQRIHSGEEPHKCPECGKRF [H5W]	2.89
QLTGHCRIHSGEEPHKCPECGKRF [Q6C]	4.23
QLTGHYRIHSGEEPHKCPECGKRF [Q6Y]	3.97
QLTGHFRIHSGEEPHKCPECGKRF [Q6F]	2.85
QLTGHVRIHSGEEPHKCPECGKRF [Q6V]	3.27
QLTGHQRIHSNEEPHKCPECGKRF [G11N]	3.86
QLTGHQRIHSWEEPHKCPECGKRF [G11W]	3.76
QLTGHQRIHSCEEPHKCPECGKRF [G11C]	4.88
QLTGHQRIHSSEEPHKCPECGKRF [G11S]	4.17
QLTGHQRIHSGEEPHSCPECGKRF [K16S]	5.11
QLTGHQRIHSGEEPHLCPECGKRF [K16L]	4.48
QLTGHQRIHSGEEPHTCPECGKRF [K16T]	4.43
QLTGHQRIHSGEEPHVCPECGKRF [K16V]	4.58
QLTGHQRIHSGEEPHRCPECGKRF [K16R]	3.41
QLTGHQQIHSGEEPHKCPECGKRF [R7Q]	4.22
QLTGHQDIHSGEEPHKCPECGKRF [R7D]	4.85
QLTGHQTIHSGEEPHKCPECGKRF [R7T]	4.74
QLTGHQCIHSGEEPHKCPECGKRF [R7C]	5.01

Variant	protein stability index
QLTGHQNIHSGEEPHKCPECGKRF [R7N]	3.52
QLTGHQSIHSGEEPHKCPECGKRF [R7S]	4.83
QLTQHQRIHSGEEPHKCPECGKRF [G4Q]	4.7
QLTAHQRIHSGEEPHKCPECGKRF [G4A]	4.34
QLTHHQRIHSGEEPHKCPECGKRF [G4H]	3.94
QLTMHQRIHSGEEPHKCPECGKRF [G4M]	4.18
QLTGHQRIHSGEQPHKCPECGKRF [E13Q]	3.63
QLTGHQRIHSGEKPHKCPECGKRF [E13K]	4.59
QLTGHQRIHSGELPHKCPECGKRF [E13L]	2.85
QLTGHQRIHSGEIPHKCPECGKRF [E13I]	3.97
QLTGHQRIHSGEEPHKCPECGKRC [F24C]	5.12
QLTGHQRIHSGEEPHKCPECGKRA [F24A]	5.07
QLTGHQRIHSGEEPHKCPECGKRL [F24L]	4.64
QLTGHQRIHSGEEPHKCPECGQRF [K22Q]	3.85
QLTGHQRIHSGEEPHKCPECGMRF [K22M]	4.43
QLTGHQRIHSGEEPHKCPECGDRF [K22D]	4.49
QLTGHQRIHSGEEPHKCPECGCRF [K22C]	4.2
KLTGHQRIHSGEEPHKCPECGKRF [Q1K]	3.61
RLTGHQRIHSGEEPHKCPECGKRF [Q1R]	3.87
FLTGHQRIHSGEEPHKCPECGKRF [Q1F]	2.09
QLTGHQRIHSGEEPHKCPECRKRF [G21R]	4.34
QLTGHQRIHSGEEPHKCPECMKRF [G21M]	4.53
QLTGHQRIHSGEEPHKCPECIKRF [G21I]	4.34
QLTGHQRIHSGEEPHKCPECNKRF [G21N]	4.47
QLTGHQRIDSGEEPHKCPECGKRF [H9D]	4.9
QLTGHQRIISGEEPHKCPECGKRF [H9I]	3.8

Variant	protein stability index
QLTGHQRIVSGEEPHKCPECGKRF [H9V]	4.48
QLTGHQRIFSGEEPHKCPECGKRF [H9F]	3.78
QLTGHQRIESGEEPHKCPECGKRF [H9E]	4.61
QLTGHQRIHSGEEFHKCPECGKRF [P14F]	4.38
QLTGHQRIHSGEESHKCPECGKRF [P14S]	4.88
QLTGHQRIHSGEEQHKCPECGKRF [P14Q]	4.75
QLTGHQRIHSGEEMHKCPECGKRF [P14M]	4.05
QYTGHQRIHSGEEPHKCPECGKRF [L2Y]	3.66
QRTGHQRIHSGEEPHKCPECGKRF [L2R]	4.33
QFTGHQRIHSGEEPHKCPECGKRF [L2F]	3.89
QWTGHQRIHSGEEPHKCPECGKRF [L2W]	4.53
QATGHQRIHSGEEPHKCPECGKRF [L2A]	4.57
QLTGHQRIHYGEEPHKCPECGKRF [S10Y]	3.45
QLTGHQRIHEGEEPHKCPECGKRF [S10E]	4.48
QLTGHQRIHCGEEPHKCPECGKRF [S10C]	4.11
QLTGHQRIHWGEEPHKCPECGKRF [S10W]	4.31
QLTGHQRIHVGEEPHKCPECGKRF [S10V]	4.09
QLTGHQRIHSGTEPHKCPECGKRF [E12T]	3.43
QLTGHQRIHSGAEPHKCPECGKRF [E12A]	5.14
QLTGHQRIHSGQEPHKCPECGKRF [E12Q]	3.29
QLTGHQRIHSGLEPHKCPECGKRF [E12L]	4.05
QLTGHQRIHSGEEPHKCPESGKRF [C20S]	4.37
QLTGHQRIHSGEEPHKCPENGKRF [C20N]	4.49
QLTGHQRIHSGEEPMKCPECGKRF [H15M]	3.68
